Measured values as given in article PMC6447562, “Structures of the wild-type MexAB–OprM tripartite pump reveal its complex formation and drug efflux mechanism” (Nature Communications, 2019).

B1: MexB, full length (natural protein)
chain: MSKFFIDRPIFAWVIALVIMLAGGLSILSLPVNQYPAIAPPAIAVQVSYPGASAETVQDTVVQVIEQQMNGIDNLRYISSESNSDGSMTITVTFEQGTDPDIAQVQVQNKLQLATPLLPQEVQRQGIRVTKAVKNFLMVVGVVSTDGSMTKEDLSNYIVSNIQDPLSRTKGVGDFQVFGSQYSMRIWLDPAKLNSYQLTPGDVSSAIQAQNVQISSGQLGGLPAVKGQQLNATIIGKTRLQTAEQFENILLKVNPDGSQVRLKDVADVGLGGQDYSINAQFNGSPASGIAIKLATGANALDTAKAIRQTIANLEPFMPQGMKVVYPYDTTPVVSASIHEVVKTLGEAILLVFLVMYLFLQNFRATLIPTIAVPVVLLGTFGVLAAFGFSINTLTMFGMVLAIGLLVDDAIVVVENVERVMAEEGLSPREAARKSMGQIQGALVGIAMVLSAVFLPMAFFGGSTGVIYRQFSITIVSAMALSVIVALILTPALCATMLKPIEKGDHGEHKGGFFGWFNRMFLSTTHGYERGVASILKHRAPYLLIYVVIVAGMIWMFTRIPTAFLPDEDQGVLFAQVQTPPGSSAERTQVVVDSMREYLLEKESSSVSSVFTVTGFNFAGRGQSSGMAFIMLKPWEERPGGENSVFELAKRAQMHFFSFKDAMVFAFAPPSVLELGNATGFDLFLQDQAGVGHEVLLQARNKFLMLAAQNPALQRVRPNGMSDEPQYKLEIDDEKASALGVSLADINSTVSIAWGSSYVNDFIDRGRVKRVYLQGRPDARMNPDDLSKWYVRNDKGEMVPFNAFATGKWEYGSPKLERYNGVPAMEILGEPAPGLSSGDAMAAVEEIVKQLPKGVGYSWTGLSYEERLSGSQAPALYALSLLVVFLCLAALYESWSIPFSVMLVVPLGVIGALLATSMRGLSNDVFFQVGLLTTIGLSAKNAILIVEFAKELHEQGKGIVEAAIEACRMRLRPIVMTSLAFILGVVPLAISTGAGSGSQHAIGTGVIGGMVTATVLAIFWVPLFYVAVSTLFKDEASKQQASVEKGQ
notes: MexB (RND transporter), Pseudomonas aeruginosa, full length; also called RND transporter; source: E. coli C43(DE3), membranes solubilised with DDM, purified (Ni-chelating Sepharose, Superdex200, CYMAL-7)
B2: OprM, full length (natural protein)
chain: CSLIPDYQRPEAPVAAAYPQGQAYGQNTGAAAVPAADIGWREFFRDPQLQQLIGVALENNRDLRVAALNVEAFRAQYRIQRADLFPRIGVDGSGTRQRLPGDLSTTGSPAISSQYGVTLGTTAWELDLFGRLRSLRDQALEQYLATEQAQRSAQTTLVASVATAYLTLKADQAQLQLTKDTLGTYQKSFDLTQRSYDVGVASALDLRQAQTAVEGARATLAQYTRLVAQDQNALVLLLGSGIPANLPQGLGLDQTLLTEVPAGLPSDLLQRRPDILEAEHQLMAANASIGAARAAFFPSISLTANAGTMSRQLSGLFDAGSGSWLFQPSINLPIFTAGSLRASLDYAKIQKDINVAQYEKAIQTAFQEVADGLAARGTFTEQLQAQRDLVKASDEYYQLADKRYRTGVDNYLTLLDAQRSLFTAQQQLITDRLNQLTSEVNLYKALGGGWNQQTVTQQQTAKKEDPQA
notes: OprM (outer membrane factor), Pseudomonas aeruginosa, gene encoding full-length OprM; The full-length gene was expressed; also called OMF; outer membrane factor; source: E. coli C43(DE3), outer membranes solubilised with OG, purified (Ni-NTA, Superdex200, CYMAL-7)
B3: MexA (a.a. 2-360) (natural protein)
chain: GKSEAPPPAQTPEVGIVTLEAQTVTLNTELPGRTNAFRIAEVRPQVNGIILKRLFKEGSDVKAGQQLYQIDPATYEADYQSAQANLASTQEQAQRYKLLVADQAVSKQQYADANAAYLQSKAAVEQARINLRYTKVLSPISGRIGRSAVTEGALVTNGQANAMATVQQLDPIYVDVTQPSTALLRLRRELASGQLERAGDNAAKVSLKLEDGSQYPLEGRLEFSEVSVDEGTGSVTIRAVFPNPNNELLPGMFVHAQLQEGVKQKAILAPQQGVTRDLKGQATALVVNAQNKVELRVIKADRVIGDKWLVTEGLNAGDKIITEGLQFVQPGVEVKTVPAKNVASAQKADAAPAKTDSKG
notes: MexA (membrane fusion protein), Pseudomonas aeruginosa, a.a; 2-360, lacks the signal peptide and the first cysteine; numbers count on: the mature protein; Six copies (a hexamer) stand in the assembled MexAB-OprM pump; also called MFP; membrane fusion protein; source: E. coli BL21-RILP(DE3), purified (Ni-NTA, TEV cleavage, Superdex200); not shown: His6, N-terminal, cleaved
B4: MexA R96A (natural protein, Pseudomonas aeruginosa, UniProt P52477 25-383, looked up)
chain: GKSEAPPPAQTPEVGIVTLEAQTVTLNTELPGRTNAFRIAEVRPQVNGIILKRLFKEGSDVKAGQQLYQIDPATYEADYQSAQANLASTQEQAQAYKLLVADQAVSKQQYADANAAYLQSKAAVEQARINLRYTKVLSPISGRIGRSAVTEGALVTNGQANAMATVQQLDPIYVDVTQPSTALLRLRRELASGQLERAGDNAAKVSLKLEDGSQYPLEGRLEFSEVSVDEGTGSVTIRAVFPNPNNELLPGMFVHAQLQEGVKQKAILAPQQGVTRDLKGQATALVVNAQNKVELRVIKADRVIGDKWLVTEGLNAGDKIITEGLQFVQPGVEVKTVPAKNVASAQKADAAPAKTDSKG
notes: MexA, Pseudomonas aeruginosa, a.a; 2-360 as m1; numbers count on: the mature protein; source: E. coli, expressed and purified as the wild type; not shown: His6, N-terminal, cleaved
B5: MexA R96D (natural protein, Pseudomonas aeruginosa, UniProt P52477 25-383, looked up)
chain: GKSEAPPPAQTPEVGIVTLEAQTVTLNTELPGRTNAFRIAEVRPQVNGIILKRLFKEGSDVKAGQQLYQIDPATYEADYQSAQANLASTQEQAQDYKLLVADQAVSKQQYADANAAYLQSKAAVEQARINLRYTKVLSPISGRIGRSAVTEGALVTNGQANAMATVQQLDPIYVDVTQPSTALLRLRRELASGQLERAGDNAAKVSLKLEDGSQYPLEGRLEFSEVSVDEGTGSVTIRAVFPNPNNELLPGMFVHAQLQEGVKQKAILAPQQGVTRDLKGQATALVVNAQNKVELRVIKADRVIGDKWLVTEGLNAGDKIITEGLQFVQPGVEVKTVPAKNVASAQKADAAPAKTDSKG
notes: as for B4
B6: MexA L99D (natural protein, Pseudomonas aeruginosa, UniProt P52477 25-383, looked up)
chain: GKSEAPPPAQTPEVGIVTLEAQTVTLNTELPGRTNAFRIAEVRPQVNGIILKRLFKEGSDVKAGQQLYQIDPATYEADYQSAQANLASTQEQAQRYKDLVADQAVSKQQYADANAAYLQSKAAVEQARINLRYTKVLSPISGRIGRSAVTEGALVTNGQANAMATVQQLDPIYVDVTQPSTALLRLRRELASGQLERAGDNAAKVSLKLEDGSQYPLEGRLEFSEVSVDEGTGSVTIRAVFPNPNNELLPGMFVHAQLQEGVKQKAILAPQQGVTRDLKGQATALVVNAQNKVELRVIKADRVIGDKWLVTEGLNAGDKIITEGLQFVQPGVEVKTVPAKNVASAQKADAAPAKTDSKG
notes: as for B4

Assays:
[1] = target: the molecule itself; assay: cryo-EM structure; MexA, MexB and OprM reconstituted in vitro, detergent replaced with amphipol A8-35, 50 mM HEPES-K pH 7.5; single-particle analysis; 0° and 60° states; without drug and with 10 mM novobiocin
OprM, full length [2] = target: B2; assay: as above; details: both partners purified
MexB, full length = target: B1; assay: SEC; complex-formation experiment: MexA, MexB and OprM (wild type, or one of them mutated) mixed at 3:1:1 in buffer C, dialysed against buffer D (20 mM Na-citrate, 300 mM KCl, 0.02% CYMAL-7) at 4 °C, Superdex200 16/60, 0.5 mL/min; the read-out is the formation of the tripartite complex; details: both partners purified
OprM, full length [3] = target: B2; assay: as above; details: both partners purified

Binder	stoichiometry N [1]	stoichiometry N (OprM, full length [2])	binding result (MexB, full length)	binding result (OprM, full length [3])
B1	3			
B2	3			
B3	6	2 MexA per OprM		
B4			binds	binds
B5				binds
B6			binds	binds
